Values of other authors in paper PMC3359799.
Where two headings read alike, the source gives them in different places.

Experiments:
[1] = target: Exendin-4 (Heloderma suspectum) (UniProt P26349)
GLP-1 (Homo sapiens) [2] = target: GLP-1 (Homo sapiens) (UniProt P01275)
[3] = target: Exendin-4 (Heloderma suspectum) (UniProt P26349); assay: surface plasmon resonance
GLP-1 (Homo sapiens) [4] = target: GLP-1 (Homo sapiens) (UniProt P01275); remark: listed apart in the source
GLP-1 (Homo sapiens) [5] = target: GLP-1 (Homo sapiens) (UniProt P01275); remark: listed apart in the source
[6] = target: Exendin-4 (Heloderma suspectum) (UniProt P26349); remark: listed apart in the source

UniProt P26349, sequence (P26349 48-86): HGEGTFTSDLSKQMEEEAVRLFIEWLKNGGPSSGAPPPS
UniProt P01275, sequence (P01275 98-127): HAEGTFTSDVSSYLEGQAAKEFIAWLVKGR

| Substance | Kd [1] [nM] | Kd (GLP-1 (Homo sapiens) [2]) [nM] | Kd [3] [nM] | Kd (GLP-1 (Homo sapiens) [4]) [nM] | Kd (GLP-1 (Homo sapiens) [5]) [nM] | Kd [6] [nM] |
| --- | --- | --- | --- | --- | --- | --- |
| GLP-1 receptor ECD (from UniProt P43220) | 13 | 800 | 900 | 1000 |  |  |
| GLP-1 receptor (from UniProt P43220) |  |  |  |  | 0.3 | 0.1 |
